These results are taken from the array DNA melting data of Ke et al..

The nature of the data set: melting temperature; melt of duplexes. Particulars: sodium 0.0675 M; strand 1 µM.
On to “CGACGTGCACTATGTGCTG+CAGCACATGCTGCACGTCG (((((((((..((((((((+))))))))..)))))))))”, for which the Tm stood at 45.5 °C.

As for “CGACGTGCCCAATGTGCTG+CAGCACATCTTGCACGTCG ((((((((...((((((((+))))))))...))))))))”, the Tm was determined as 48.1 °C.

On to “CGACGTGCCATATGTGCTG+CAGCACATAAAGCACGTCG ((((((((..(((((((((+)))))))))..))))))))”, for which the midpoint of thermal melting (Tm) was found to be 51.3 °C.

Consider “CGACGTGCATGATGTGCTG+CAGCACATAACGCACGTCG ((((((((.(.((((((((+)))))))).).))))))))”, for which the Tm came to 49.3 °C.

For “CGACGTGCGATATGTGCTG+CAGCACATGCAGCACGTCG ((((((((...((((((((+))))))))...))))))))”, the Tm was determined as 53.6 °C.

On to “CGACGTGCTAAATGTGCTG+CAGCACATAGTGCACGTCG ((((((((...((((((((+))))))))...))))))))”, for which the Tm was 45.2 °C.

Regarding “CGACGTGCTCAATGTGCTG+CAGCACATGCTGCACGTCG ((((((((...((((((((+))))))))...))))))))”, the Tm turned out to be 47.9 °C.

Take “CGACGTGCGAGATGTGCTG+CAGCACATGCAGCACGTCG ((((((((...((((((((+))))))))...))))))))”: the Tm was found to be 53.7 °C.

As for “CGACGTGCCGCATGTGCTG+CAGCACATGGGGCACGTCG (((((((((.(((((((((+))))))))).)))))))))”, the melting temperature (Tm) was 62.6 °C.

On to “CGACGTGCCGTATGTGCTG+CAGCACATGTAGCACGTCG ((((((((...((((((((+))))))))...))))))))”, for which the melting temperature (Tm) stood at 49.1 °C.

With “CGACGTGCTTCATGTGCTG+CAGCACATCAAGCACGTCG ((((((((((.((((((((+)))))))).))))))))))”, the Tm is 53.3 °C.

As to “CGACGTGCGTAATGTGCTG+CAGCACATAGCGCACGTCG (((((((((..((((((((+))))))))..)))))))))”, the Tm worked out at 56.1 °C.

“CGACGTGCGGGATGTGCTG+CAGCACATGAAGCACGTCG ((((((((...((((((((+))))))))...))))))))”: the midpoint of thermal melting (Tm) worked out at 53.7 °C.

For “CGACGTGCCAAATGTGCTG+CAGCACATCTTGCACGTCG ((((((((.(.((((((((+)))))))).).))))))))”, the Tm came to 48.7 °C.

Turning to “CGACGTGCTGCATGTGCTG+CAGCACATTACGCACGTCG ((((((((...((((((((+))))))))...))))))))”, the melting temperature (Tm) worked out at 48.2 °C.

For “CGACGTGCGGGATGTGCTG+CAGCACATTCCGCACGTCG ((((((((((.((((((((+)))))))).))))))))))”, the melting temperature (Tm) is 62.8 °C.

As to “CGACGTGCGAGATGTGCTG+CAGCACATCCCGCACGTCG (((((((((.(((((((((+))))))))).)))))))))”, the melting temperature (Tm) amounted to 60.3 °C.

On to “CGACGTGCGCAATGTGCTG+CAGCACATATGGCACGTCG ((((((((...((((((((+))))))))...))))))))”, for which the Tm came out at 50.7 °C.

As to “CGACGTGCACAATGTGCTG+CAGCACATCTGGCACGTCG ((((((((...((((((((+))))))))...))))))))”, the Tm is 47.5 °C.

“CGACGTGCAATATGTGCTG+CAGCACATGGAGCACGTCG ((((((((...((((((((+))))))))...))))))))”: the Tm was 51 °C.

For “CGACGTGCTTAATGTGCTG+CAGCACATCCTGCACGTCG ((((((((...((((((((+))))))))...))))))))”, the melting temperature (Tm) came to 48.4 °C.

“CGACGTGCAATATGTGCTG+CAGCACATGTAGCACGTCG ((((((((.(.((((((((+)))))))).).))))))))”: the melting temperature (Tm) was 52 °C.

On to “CGACGTGCAATATGTGCTG+CAGCACATATGGCACGTCG ((((((((.((((((((((+)))))))))).))))))))”, for which the Tm stood at 55.6 °C.

As to “CGACGTGCCCCATGTGCTG+CAGCACATGTTGCACGTCG ((((((((..(((((((((+)))))))))..))))))))”, the Tm amounted to 51.8 °C.

Take “CGACGTGCTTGATGTGCTG+CAGCACATAGAGCACGTCG (((((((((..((((((((+))))))))..)))))))))”: the midpoint of thermal melting (Tm) was 54.2 °C.

As to “CGACGTGCGCTATGTGCTG+CAGCACATCTAGCACGTCG ((((((((...((((((((+))))))))...))))))))”, the midpoint of thermal melting (Tm) stood at 50.4 °C.

On to “CGACGTGCCGCATGTGCTG+CAGCACATCAGGCACGTCG (((((((((..((((((((+))))))))..)))))))))”, for which the Tm is 55.5 °C.

For the substance “CGACGTGCGTGATGTGCTG+CAGCACATAATGCACGTCG ((((((((.(.((((((((+)))))))).).))))))))”, the Tm came to 52.9 °C.

Regarding “CGACGTGCAGTATGTGCTG+CAGCACATACTGCACGTCG (((((((((((((((((((+)))))))))))))))))))”, the Tm worked out at 62.7 °C.

For “CGACGTGCCTTATGTGCTG+CAGCACATCACGCACGTCG ((((((((.(.((((((((+)))))))).).))))))))”, the midpoint of thermal melting (Tm) was 46.7 °C.

Turning to “CGACGTGCTTGATGTGCTG+CAGCACATGATGCACGTCG ((((((((.(.((((((((+)))))))).).))))))))”, the Tm was 51.6 °C.

With “CGACGTGCGTTATGTGCTG+CAGCACATCGAGCACGTCG ((((((((...((((((((+))))))))...))))))))”, the Tm worked out at 52.2 °C.

As to “CGACGTGCGCCATGTGCTG+CAGCACATTTCGCACGTCG (((((((((..((((((((+))))))))..)))))))))”, the Tm came out at 51.6 °C.

As for “CGACGTGCATAATGTGCTG+CAGCACATTCGGCACGTCG ((((((((..(((((((((+)))))))))..))))))))”, the Tm worked out at 51.8 °C.

Regarding “CGACGTGCGGTATGTGCTG+CAGCACATGAAGCACGTCG ((((((((...((((((((+))))))))...))))))))”, the melting temperature (Tm) is 55.3 °C.

With “CGACGTGCAAGATGTGCTG+CAGCACATTCAGCACGTCG ((((((((...((((((((+))))))))...))))))))”, the Tm is 50.7 °C.

Turning to “CGACGTGCCTAATGTGCTG+CAGCACATCACGCACGTCG ((((((((.(.((((((((+)))))))).).))))))))”, the Tm worked out at 46.3 °C.

Consider “CGACGTGCCACATGTGCTG+CAGCACATGTTGCACGTCG ((((((((.((((((((((+)))))))))).))))))))”, for which the Tm was 57.4 °C.

For “CGACGTGCATGATGTGCTG+CAGCACATTGAGCACGTCG ((((((((...((((((((+))))))))...))))))))”, the midpoint of thermal melting (Tm) came out at 50.7 °C.

Regarding “CGACGTGCGATATGTGCTG+CAGCACATCTGGCACGTCG ((((((((.(.((((((((+)))))))).).))))))))”, the midpoint of thermal melting (Tm) stood at 50 °C.

For the substance “CGACGTGCATAATGTGCTG+CAGCACATTTTGCACGTCG (((((((((.(((((((((+))))))))).)))))))))”, the Tm was 56.1 °C.

Regarding “CGACGTGCTTGATGTGCTG+CAGCACATATAGCACGTCG (((((((((..((((((((+))))))))..)))))))))”, the Tm stood at 54 °C.

On to “CGACGTGCTACATGTGCTG+CAGCACATACAGCACGTCG (((((((((..((((((((+))))))))..)))))))))”, for which the Tm was determined as 51.5 °C.

As to “CGACGTGCTTAATGTGCTG+CAGCACATCATGCACGTCG ((((((((.(.((((((((+)))))))).).))))))))”, the Tm came out at 50.3 °C.

Turning to “CGACGTGCCTGATGTGCTG+CAGCACATGTAGCACGTCG ((((((((...((((((((+))))))))...))))))))”, the Tm came to 49.3 °C.

Consider “CGACGTGCTCCATGTGCTG+CAGCACATAAGGCACGTCG ((((((((...((((((((+))))))))...))))))))”, for which the Tm is 49 °C.

“CGACGTGCGTTATGTGCTG+CAGCACATGGTGCACGTCG ((((((((...((((((((+))))))))...))))))))”: the Tm amounted to 48.3 °C.

For the substance “CGACGTGCCAAATGTGCTG+CAGCACATGCCGCACGTCG ((((((((...((((((((+))))))))...))))))))”, the Tm stood at 50.6 °C.

For the substance “CGACGTGCAGTATGTGCTG+CAGCACATGTGGCACGTCG ((((((((...((((((((+))))))))...))))))))”, the Tm came out at 50.4 °C.

Regarding “CGACGTGCGGTATGTGCTG+CAGCACATACCGCACGTCG (((((((((((((((((((+)))))))))))))))))))”, the midpoint of thermal melting (Tm) was 66 °C.

As to “CGACGTGCCGGATGTGCTG+CAGCACATTTCGCACGTCG ((((((((...((((((((+))))))))...))))))))”, the midpoint of thermal melting (Tm) is 49.1 °C.

On to “CGACGTGCCGGATGTGCTG+CAGCACATCATGCACGTCG ((((((((..(((((((((+)))))))))..))))))))”, for which the Tm was 54.8 °C.

For “CGACGTGCTGAATGTGCTG+CAGCACATGGTGCACGTCG ((((((((...((((((((+))))))))...))))))))”, the melting temperature (Tm) was found to be 50.9 °C.

For “CGACGTGCTATATGTGCTG+CAGCACATAGGGCACGTCG ((((((((..(((((((((+)))))))))..))))))))”, the Tm amounted to 53.2 °C.

Regarding “CGACGTGCCCGATGTGCTG+CAGCACATGCAGCACGTCG ((((((((...((((((((+))))))))...))))))))”, the Tm was determined as 49.6 °C.

On to “CGACGTGCCATATGTGCTG+CAGCACATACGGCACGTCG (((((((((.(((((((((+))))))))).)))))))))”, for which the midpoint of thermal melting (Tm) was found to be 55.3 °C.

For “CGACGTGCGTAATGTGCTG+CAGCACATAAAGCACGTCG ((((((((.(.((((((((+)))))))).).))))))))”, the melting temperature (Tm) was 55 °C.

For the substance “CGACGTGCGTCATGTGCTG+CAGCACATATGGCACGTCG ((((((((...((((((((+))))))))...))))))))”, the Tm was determined as 49.8 °C.

Consider “CGACGTGCAGGATGTGCTG+CAGCACATATGGCACGTCG ((((((((...((((((((+))))))))...))))))))”, for which the Tm was determined as 51.3 °C.

Regarding “CGACGTGCTGCATGTGCTG+CAGCACATCTCGCACGTCG ((((((((...((((((((+))))))))...))))))))”, the Tm turned out to be 49.2 °C.

On to “CGACGTGCCAGATGTGCTG+CAGCACATAGGGCACGTCG (((((((((..((((((((+))))))))..)))))))))”, for which the melting temperature (Tm) stood at 55.8 °C.

On to “CGACGTGCGCTATGTGCTG+CAGCACATACCGCACGTCG (((((((((.(((((((((+))))))))).)))))))))”, for which the Tm was found to be 54.8 °C.

Turning to “CGACGTGCTGCATGTGCTG+CAGCACATACGGCACGTCG ((((((((.(.((((((((+)))))))).).))))))))”, the Tm was 53.6 °C.

As to “CGACGTGCTGTATGTGCTG+CAGCACATGGCGCACGTCG ((((((((...((((((((+))))))))...))))))))”, the melting temperature (Tm) is 48.9 °C.

As for “CGACGTGCCGCATGTGCTG+CAGCACATAGTGCACGTCG ((((((((...((((((((+))))))))...))))))))”, the Tm worked out at 46.8 °C.

In the case of “CGACGTGCTTAATGTGCTG+CAGCACATCGGGCACGTCG ((((((((...((((((((+))))))))...))))))))”, the Tm came out at 49.1 °C.

Usually Tm stands for the temperature at which the thermal transition is half complete.
